From PMC10539519, “Computational remodeling of an enzyme conformational landscape for altered substrate selectivity” (Nature Communications, 2023) come the findings set out here.

Positions count from the first letter of the chain named. Names may count otherwise.

For data set [1], the target named is T1, E. coli aspartate aminotransferase (AAT) (Escherichia coli, UniProt P00509).
T1 construct: gene aspC; full-length, N-terminal His-tag, expressed in E. coli BL21-Gold (DE3), Ni-NTA purified; 90 kDa homodimer, PLP-dependent
T1 sequence (P00509 1-396): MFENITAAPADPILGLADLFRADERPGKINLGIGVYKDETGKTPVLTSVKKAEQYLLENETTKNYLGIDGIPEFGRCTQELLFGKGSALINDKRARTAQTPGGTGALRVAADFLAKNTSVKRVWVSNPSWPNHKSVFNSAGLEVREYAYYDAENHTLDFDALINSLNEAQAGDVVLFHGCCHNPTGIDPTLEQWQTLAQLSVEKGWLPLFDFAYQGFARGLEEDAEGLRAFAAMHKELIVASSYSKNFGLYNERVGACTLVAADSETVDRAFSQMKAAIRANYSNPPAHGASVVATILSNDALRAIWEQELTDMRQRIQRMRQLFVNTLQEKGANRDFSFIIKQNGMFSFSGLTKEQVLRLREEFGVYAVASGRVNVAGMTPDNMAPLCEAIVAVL
Put plainly: room-temperature X-ray crystallography. Format: binding.

Substrate in data set [2]: O=C(O)CCC(=O)C(=O)O
The data set is described as follows: purified protein. The following applies: α-ketoglutarate varied 0.002–20 mM, co-substrate 10–20 mM L-aspartate or L-phenylalanine, substrate inhibition, 16 µM PLP, pH 8, 37 °C. In kind it is biochemical, Escherichia coli.

Substrate in data set [3]: N[C@@H](CC(=O)O)C(=O)O
Put plainly: purified protein. The conditions noted are these: co-substrate α-ketoglutarate (fixed, 0.1563–1.25 mM range), 16 µM PLP, 5 mM NAD+, 100 mM potassium phosphate pH 8, 37 °C.

Data set [4] deals with the molecule itself. Put plainly: crystal structure; X-ray crystallography, space group P 6_(3), two chains in the asymmetric unit; crystals grown with 20 mM maleate and ammonium sulfate, with or without soaking to remove maleate; data at 278 K (AIFS at 100 K; WT, HEX, VFIT also at 303 K).
Substrate in data set [5]: N[C@@H](Cc1ccccc1)C(=O)O
The data set is described as follows: purified protein. In kind it is biochemical, Escherichia coli. The conditions noted are these: co-substrate α-ketoglutarate (fixed, 0.1563–1.25 mM range), 16 µM PLP, 5 mM NAD+, 100 mM potassium phosphate pH 8, 37 °C.

Regarding `Cc1ncc(COP(=O)(O)O)c(C=O)c1O` [pyridoxal phosphate], the “room-temperature X-ray crystallography” value in data set [1] (covalent internal aldimine with K246, 10 µM PLP in crystallisation) is “Restraints for PLP in its internal aldimine form were generated using phenix.elbow”.

Consider `O=C(O)/C=C\C(=O)O` [maleate], for which the “room-temperature X-ray crystallography” value in data set [1] (co-crystallised with 20 mM maleate, 278 K, contacts Arg280 and Arg374, closed conformation) is “electrostatic interactions between maleate and the side chains of Arg280 and Arg374”.

B1: E. coli aspartate aminotransferase (AAT) (Escherichia coli K-12) (protein)
chain: T1 sequence (P00509 1-396)
notes: full-length, N-terminal His-tag, expressed in E. coli BL21-Gold (DE3), Ni-NTA purified; 90 kDa homodimer, PLP-dependent
For B1, in “purified protein [2]”, the Km is on record as 0.065 ± 0.005 mM and the kcat came to 12.2 ± 0.3 s–1. Besides, in the data set “purified protein [3]”, the Michaelis-Menten constant (Km) is on record as 0.21 ± 0.03 mM, the kcat was determined as 7.8 s⁻¹ and the kcat/Km turned out to be 37000 ± 5000 M⁻¹ s⁻¹.

B2: E. coli aspartate aminotransferase hexamutant HEX (enzyme)
chain: T1 sequence (P00509 1-396) with V35L, K37Y, T43I, N64L, T104S, N285S
modifications: imine bond between PLP and K246 (internal aldimine)
notes: aspartate aminotransferase (AAT), Escherichia coli, UniProt P00509, with six mutations; T104S and N285S are T109S and N297S in the numbering of PDB 1AHE and 1AHY; Mutant genes were ligated into pET-11a; the proteins were purified on Ni-NTA; source: E. coli BL21-Gold (DE3), purified (Ni-NTA, gel filtration)
As to B2, in data set [4], the “stoichiometry N” value came to 2.

B3: E. coli aspartate aminotransferase (AAT) (Escherichia coli K-12; K37F/N64S/T43C) (protein)
chain: T1 sequence (P00509 1-396) with K37F, T43C, N64S
notes: as for B1
Turning to B3, in the data set “purified protein [5]”, the Km is on record as 12 ± 1 mM, the kcat stood at 87 ± 3 s⁻¹ and the kcat/Km came to 7200 ± 700 M⁻¹ s⁻¹. In the data set “purified protein [3]”, the Michaelis constant (Km) was found to be 0.068 ± 0.007 mM, the kcat is 6 s⁻¹ and the specificity constant (kcat/Km) came out at 88000 ± 9000 M⁻¹ s⁻¹.

B4: E. coli aspartate aminotransferase (AAT) (Escherichia coli K-12; K37I/N64S/T43F/V35A) (protein)
chain: T1 sequence (P00509 1-396) with V35A, K37I, T43F, N64S
notes: as for B1
B4: in “purified protein [5]”, the Km turned out to be 2.6 ± 0.2 mM, the kcat was determined as 0.54 ± 0.01 s⁻¹ and the kcat/Km was determined as 210 ± 20 M⁻¹ s⁻¹. Moreover, in the data set “purified protein [3]”, the Km was found to be 0.32 ± 0.03 mM, the kcat amounted to 2.42 s⁻¹ and the kcat/Km amounted to 7600 M⁻¹ s⁻¹.

B5: wild-type E. coli aspartate aminotransferase (enzyme)
chain: T1 sequence (P00509 1-396)
modifications: imine bond between PLP and K246 (internal aldimine)
notes: aspartate aminotransferase (AAT), Escherichia coli, UniProt P00509; Gene with N-terminal His-tag in pET-45b; also called AAT; WT; source: E. coli BL21-Gold (DE3), purified (Ni-NTA, gel filtration)
As for B5, the “stoichiometry N” value in data set [4] came out at 2.

B6: E. coli aspartate aminotransferase (AAT) (Escherichia coli K-12; K37Y/N285S/N64L/T104S/T43I/V35L) (protein)
chain: T1 sequence (P00509 1-396) with V35L, K37Y, T43I, N64L, T104S, N285S
notes: as for B1
For the molecule B6, in “purified protein [5]”, the Km is on record as 0.27 ± 0.03 mM, the kcat was determined as 9 ± 0.2 s⁻¹ and the kcat/Km was 33000 ± 4000 M⁻¹ s⁻¹. In “purified protein [3]”, the Michaelis constant (Km) was 0.059 ± 0.007 mM, the kcat is 1.32 s⁻¹ and the catalytic efficiency (kcat/Km) is 22000 ± 3000 M⁻¹ s⁻¹.

B7: E. coli aspartate aminotransferase (AAT) (Escherichia coli K-12; K37F/N64Y/T43I) (protein)
chain: T1 sequence (P00509 1-396) with K37F, T43I, N64Y
notes: as for B1
For the molecule B7, in the data set “purified protein [5]”, the Michaelis-Menten constant (Km) came to 0.42 ± 0.04 mM, the kcat amounted to 17.3 ± 0.4 s⁻¹ and the specificity constant (kcat/Km) amounted to 41000 ± 4000 M⁻¹ s⁻¹. Further, in the data set “purified protein [3]”, the Km is given as 0.12 ± 0.01 mM, the kcat is 0.263 s⁻¹ and the kcat/Km came out at 2200 M⁻¹ s⁻¹.

B8: E. coli aspartate aminotransferase (AAT) (Escherichia coli K-12; K37F/N64T/T43I) (protein)
chain: T1 sequence (P00509 1-396) with K37F, T43I, N64T
notes: as for B1
With B8, in the data set “purified protein [5]”, the Km worked out at 0.90 ± 0.06 mM, the kcat came out at 22.8 ± 0.4 s⁻¹ and the kcat/Km turned out to be 25000 ± 2000 M⁻¹ s⁻¹. In the data set “purified protein [3]”, the Km is listed as 0.027 ± 0.003 mM, the kcat came to 0.9 s⁻¹ and the kcat/Km was 33000 ± 4000 M⁻¹ s⁻¹.
